Results as given in doi:10.1101/2022.06.14.495942 (bioRxiv, 2022).
Values belong to the binder of their own block, whether it stands above or below them.

Legend:
[1] = target: T1, UFO in the purified ASK1-UFO-LFY-DBD complex (Arabidopsis thaliana, UniProt Q39090 1-442); assay: SEC-MALS
T1 sequence: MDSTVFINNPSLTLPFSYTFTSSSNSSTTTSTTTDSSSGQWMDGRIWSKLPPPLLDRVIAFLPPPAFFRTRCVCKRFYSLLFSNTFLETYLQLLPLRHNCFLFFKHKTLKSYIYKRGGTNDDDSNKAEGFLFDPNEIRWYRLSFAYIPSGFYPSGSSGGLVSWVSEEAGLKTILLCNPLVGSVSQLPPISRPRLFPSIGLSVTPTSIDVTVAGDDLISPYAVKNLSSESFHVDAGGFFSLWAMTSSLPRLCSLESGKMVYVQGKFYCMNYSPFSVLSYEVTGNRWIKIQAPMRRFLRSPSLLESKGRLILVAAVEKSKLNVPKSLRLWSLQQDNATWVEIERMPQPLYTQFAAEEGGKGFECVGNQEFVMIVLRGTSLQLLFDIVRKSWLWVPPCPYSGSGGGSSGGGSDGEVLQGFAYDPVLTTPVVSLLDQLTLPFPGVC

[2] = target: LFY-DBD in the purified ASK1-UFO-LFY-DBD complex (Arabidopsis thaliana); assay: SEC-MALS

stoichiometry N [1]: 1
B1: ASK1 in the purified ASK1-UFO-LFY-DBD complex (natural protein)
chain: MSAKKIVLKSSDGESFEVEEAVALESQTIAHMVEDDCVDNGVPLPNVTSKILAKVIEYCKRHVEAAASKAEAVEGAATSDDDLKAWDADFMKIDQATLFELILAANYLNIKNLLDLTCQTVADMIKGKTPEEIRTTFNIKNDFTPEEEEEVRRENQWAFE

stoichiometry N [2]: 1
B2: UFO in the purified ASK1-UFO-LFY-DBD complex (natural protein)
chain: T1 sequence
